Experimental data published in patent US20220056137A1 (GIGAGEN, published 2022).

What was measured:
[1] = target: T1, PD-L1 expressed on CHO cells (human, UniProt Q9NZQ7 19-290); assay: cell-based or functional assay
[2] = target: T2, rhPD-L1-Fc (human, UniProt Q9NZQ7 19-239, limits assumed); assay: competition ELISA: plate-bound rhPD-L1-Fc, antibody titrated, competitor rhCD80-His detected
T2 construct: Recombinant human PD-L1-Fc coated on ELISA plates; not shown: Fc part

[3] = target: T3, human PD-L1 protein (soluble) (human, UniProt Q9NZQ7 19-239); assay: SPR, mAb captured on anti-human IgG Fc, PD-L1 as analyte;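 on koff: array SPR with mAb supernatants captured at several densities, PD-L1 injected for 5 min then 15 min dissociation, non-regenerative kinetic series, double-referenced against interspot surface and blank injection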;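 on kon: array SPR with mAb supernatants captured at several densities, PD-L1 injected for 5 min then 15 min dissociation, non-regenerative kinetic series, double-referenced against interspot surface and blank injection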
T3 construct: also called PD-L1 (R&D Systems); His-tagged PD-L1 protein
Description: (§1) The surface was then deactivated with 1 M ethanolamine pH 8.5 (Carterra Inc.). Running buffer used for the lawn immobilization was HBS-EPC (10 mM HEPES, 150 mM NaCl, 3 mM EDTA, 0.05% Tween 20, pH 7.4; Teknova).
(§2) The sensor chip was then transferred to a continuous flow microspotter (CFM; Carterra Inc.) for array capturing. The mAb supernatants were diluted 50-fold (3-10 mg/mL final concentration) into HBS-EPC with 1 mg/mL BSA. The samples were each captured twice with 15-minute and 4-minute capture steps on the first and second prints, respectively, to create multiple densities, using a 65 mL/min flow rate. The running buffer in the CFM was also HBS-EPC.
(§3) Next, the sensor chip was loaded onto an SPR reader (MX-96 system; Ibis Technologies) for the kinetic analysis. […] PD-L1 injections were 5 minutes with a 15-minute dissociation at 8 mL/second in a non-regenerative kinetic series. An injection of the goat anti-Human IgG Fc capture antibody at 75 mg/mL was injected at the end of the series to verify the capture level of each mAb. Binding data was double referenced by subtracting an interspot surface and a blank injection and analyzed for ka (on-rate), kd (off-rate), and KD (affinity) using the Kinetic Interaction Tool software (Carterra Inc.).

[4] = target: T3, human PD-L1 protein (soluble); assay: as above; remark: listed apart in the source
Description: as §1, §2, §3

[5] = target: T4, cyno PD-L1 (cyno); assay: BLI (Octet), antibody on AHC biosensor, cyno PD-L1 as analyte
T4 construct: Soluble analyte in BLI
Description: (§4) For BLI, antibodies were loaded onto an Anti-Human IgG Fc (AHC) biosensor using the Octet Red96 system (ForteBio). Loaded biosensors were dipped into antigen dilutions beginning at 300 nM, with 6 serial dilutions at 1:3. Kinetic analysis was performed using a 1:1 binding model and global fitting.

[6] = target: T1, PD-L1 expressed on CHO cells; assay: flow cytometry on PD-L1 expressing Flp-In CHO cells
Description: For cell surface binding studies, PD-L1 expressing Flp-In CHO (Thermo Fisher Scientific) cells were generated and mixed at a 50:50 ratio. One million cells were stained with 1 μg of the disclosed anti-PD-L1 recombinant antibodies in 200 μl of MACS Buffer (DPBS with 0.5% bovine serum albumin and 2 mM EDTA) for 30 minutes at 4 C. Cells were then co-stained with anti-human irrelevant target-APC and anti-human IgG Fc-PE antibodies for 30 minutes at 4 C. An anti-human PD-L1 antibody was used as a control for these mixing experiments and cell viability was assessed with DAPI. Flow cytometry analysis was conducted on a BD Influx at the Stanford Shared FACS Facility and data was analyzed using FlowJo.

[7] = target: T3, human PD-L1 protein (soluble); assay: BLI (Octet), antibody on AHC biosensor, PD-L1 as analyte
Description: as §4

[8] = target: T3, human PD-L1 protein (soluble); assay: as above; remark: listed apart in the source
Description: as §4

T1 sequence (Q9NZQ7 19-290 limits assumed): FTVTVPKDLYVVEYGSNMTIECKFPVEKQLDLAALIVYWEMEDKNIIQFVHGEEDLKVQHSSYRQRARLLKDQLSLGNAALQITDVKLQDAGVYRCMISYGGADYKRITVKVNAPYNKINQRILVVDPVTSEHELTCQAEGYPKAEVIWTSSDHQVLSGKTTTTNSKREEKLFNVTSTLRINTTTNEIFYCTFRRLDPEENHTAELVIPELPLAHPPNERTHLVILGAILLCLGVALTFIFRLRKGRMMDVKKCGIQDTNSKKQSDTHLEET
T2 sequence (Q9NZQ7 19-239 limits assumed): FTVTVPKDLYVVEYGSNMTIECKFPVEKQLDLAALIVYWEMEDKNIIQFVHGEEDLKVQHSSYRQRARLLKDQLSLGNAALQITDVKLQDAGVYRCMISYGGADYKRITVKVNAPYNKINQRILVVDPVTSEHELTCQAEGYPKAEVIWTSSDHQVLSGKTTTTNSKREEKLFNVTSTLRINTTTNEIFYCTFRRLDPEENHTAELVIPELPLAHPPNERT
T3 sequence (Q9NZQ7 19-239 limits assumed): as above

Binder | Promega assay antagonist (EC50, ug/mL) [1] [µg/mL] | EC50 [2] [µg/mL] | Kd [3] [nM] | Kd [4] [nM] | koff [4] [s⁻¹] | kon [4] [M⁻¹ s⁻¹] | Kd [5] [nM] | binding result [6] | Kd [7] [nM] | Kd [8] [nM] | koff [8] [s⁻¹] | kon [8] [M⁻¹ s⁻¹]
antibody A3 (antibody, V domains shown, Tested as full-length mAb made in CHO cells; also called L3H3) VL: AIQMTQSPSSLSASVGDRVTITCRASQDIRNDLGWYQQQPGKAPKLLIYAASSLQSGVPSRFSGSGSGTDFTLTISSLQPEDFATYYCLQDYNYPPTFGQGTKVEIK V domain: QVQLVESGGGVVQPGRSLRLSCAASGFTFSNYGMHWVRQAPGKGLEWVAVIWFDGNTKYYTDSVKGRFTISRDNSKNTLYLQMNSLRAEDTAVYYCARDTTMVPMDVWGQGTTATVSS | 0.12 | 0.99 | 5 | 5.14 | 0.0019 | 370000 | 8.3 |  |  |  |  | 
antibody A4 (antibody, V domains shown, Tested as full-length mAb made in CHO cells; also called L4H4) VH: QVQLVESGGGVVQPGRSLRLSCAASGFTFSNYGMHWVRQAPGKGLEWVAVIWFDGNTKYYTDSVKGRFTISRDNSKNTLYLQMNSLRAEDTAVYYCARDITMVPMDVWGQGTTVTVSS VL: AIQMTQSPSSLSASVGDRVTITCRASQDIRNDLGWYQQQPGKAPKLLIYAASSLQSGVPSRFSGSGSGTDFTLTISSLQPEDFATYYCLQDYNYPPTFGQGTKVEIK | 0.198 | 1.25 | 6.4 | 6.25 | 0.001 | 160000 | 11.3 |  |  |  |  | 
antibody A2 (antibody, V domains shown, Tested as full-length mAb made in CHO cells; also called L2H2) VH: EVQLVESGGGLVQPGGSLRLSCAASGFTFSRYDMSWVRQAPGKGLEWVSTISGSGGSTYYADSVKGRFTISRDNSKTTLYLQMISLRAEDTAVYYCAKAGFTMIVVAFDYWGQGTLVTVSS VL: DIQMTQSPSSLSASVGDRVTITCRASQGISNYLAWFQQKPGKAPKSLIYAASSLQSGVPSKFSGSGSGTDFTLTISSLQPEDFATYYCQQYNSYPYTFGQGTKLEIK | 0.042 | 0.87 | 3.5 | 3.45 | 0.0038 | 1.1e+06 | 5.2 |  |  |  |  | 
antibody A22 (antibody, V domains shown, Tested as full-length mAb made in CHO cells; also called L22H22) VH: QVQLVQSGAEVKKPGASVKVSCKASGYTFTSYGISWVRQAPGQGLEWMGWISAYNGNTNYAQKLQGRVTMTTDTSTSTAYMELRSLRSDDTAVYYCARGFYYGSWYFDYWGQGTLVTVSS VL: DIQMTQSPSSLSASVGDRVTITCRASQGISSWLAWYQQKPEKAPKSLIYAASSLQSGVPSRFSGSGSGTDFTLTISSLQPEDFATYYCQQYNSYPPTVGGGTKVEIK |  |  |  |  |  |  | 38.5 | binds |  |  |  | 
antibody A8 (antibody, V domains shown, Tested as full-length mAb made in CHO cells; also called L8H8) VH: QVQLVQSGAEVKKPGASVKVSCKASGYTFTSYGISWVRQAPGQGLEWMGWISAYNGSTNYAQKLQGRVTMTTDTSTSTAYMELRSLRSDDTAVFYCARDDRIAVADYYYYFGMDVWGQGTTVTVSS VL: DIQMTQSPSSLSASVGDRVTITCRASQGIRNDLGWYQQKPGKAPKRLIYAASSLQSGVPSRFSGSGSGTEFTLTISSLQPEDFATYYCLQHNSYPYTFGQGTKLEIK | 0.621 | 0.46 | 22 | 22.8 | 0.013 | 570000 | 18.9 |  |  |  |  | 
antibody A13 (antibody, V domains shown, Tested as full-length mAb made in CHO cells; also called L13H13) VH: QVQLQESGPGLVKPSETLSLTCTVSGGSISSYYWSWIRQPPGKGLEWIGYIHYSGSTKYNPSLKSRVTISLDTSKNQFSLKLSSVTAADTAVYYCARDRGIGAFDIWGQGTMVTVSS VL: EIVMTQSPATLSLSPGERATLSCRASQSVSSSYLSWYQQKPGQAPRLLIYGASTRATGIPARFSGSGSGTDFTLTISSLQPEDFAVYYCQQDYNLITFGQGTRLEIK | 1.12 | 0.6 | 124 | 126 | 0.039 | 310000 | 101 |  |  |  |  | 
antibody A7 (antibody, V domains shown, Tested as full-length mAb made in CHO cells; also called L7H7) VH: QVQLQESGPGLVKPSETLSLTCTVSGGSISSYYWSWIRQPPGKGLEWIGYIFYSGSTNYNPSLKSRVTISVDTSKNQFSLKLSSVTAADTAVYFCARDNWHDGGVDYWGQGTLVTVSS VL: EIVMTQSPTTLSLSPGERATLSCRASQSVSSSYLSWYQQKPGQAPRLLIYGASTRATGIPARFSGSGSGTDFTLTISSLQPEDFAVYYCQQDYNLRTFGQGTKVEIK | 0.151 | 1.88 | 17 | 16.7 | 0.0095 | 570000 | 23 |  |  |  |  | 
antibody A1 (antibody, V domains shown, Tested as full-length mAb made in CHO cells; also called L1H1) VH: QVQLVQSGAEVKKPGASVKVSCKASGFTFTSYDINWVRQATGQGLEWMGWMHPNSGITGYAQKFQGRVTMTRNTSISTAYMELSSLSSEDTAVYFCARYYYVSGSYDYWGQGTLVTVSS VL: EIVMTQSPATLSLSPGERATLSCWASQSVSSSYLSWYQQKPGQAPRLLIYGASTRATGIPARFSGSGSGTDFTLTISSLQPEDFAVYYCQQDYNLPYTFGQGTKLEIK | 0.0415 | 0.4 | 0.13 | 0.13 | 0.00013 | 1e+06 | 0.31 |  |  |  |  | 
antibody A5 (antibody, V domains shown, Tested as full-length mAb made in CHO cells; also called L5H5) VH: QVQLVESGGGVVQPGRSLRLSCAASGFAFSSYGMHWVRQAPGKGLEWVALIWFDGNNKFYADSVKGRFTISRDNSKNTLYLQMNSLRAEDTAVYYCARDTTAASFDYWGQGTLVTVSS VL: EIVMTQSPATLSLSPGERATLSCRASQSVSSTYLSWYQQKPGQAPRLLIFGASTRATGIPARFSGSGSGTDFTLTISSLQPEDFAVYYCQQDYNLPPTFGPGTKVDIK | 0.0985 | 0.97 | 15 | 14.6 | 0.0086 | 590000 | 8.6 |  |  |  |  | 
antibody A25 (antibody, V domains shown, Derived from a mutagenesis screen of A1; Tested as full-length antibody; also called L25H25) VH: QVQLVQSGAEVKKPGASVKVSCKASGFTFTSYDINWVRQATGQGLEWMGWMHPKSGITGYAQKFQGRVTMTRNTSISTAYMELSNLSSEDTAVYFCARYNYVSGSYDYWGQGTLVTVSS VL: EIVMTQSPATLSLSPGERATLSCWASQSVSSSYLSWYQQKPGQAPRLLIYGASTRATGIPARFSGSGSGTDFTLTISSLQPEDFAVYYCQQDYYLPYTFGQGTKLEIK | 0.063 | 0.26 |  |  |  |  |  |  | 2.4 | 2.44 | 0.000809 | 331000
